Measurements taken from article PMC6941993.

Tests used:
Assay in all cases: SPR; Biacore T200; […]; single-cycle kinetics; […]
[1] = molecular target: GP1_(MACV)–Fc (Machupo virus (MACV)) (UniProt Q8AZ52)
[2] = molecular target: GP1_(WWAV)–Fc (Whitewater Arroyo virus (WWAV)) (UniProt Q911P0)
[3] = molecular target: GP1_(JUNV)–Fc (Junín virus (JUNV)) (UniProt O10428)

stand-alone apical domain (sAD) designed from White-throated woodrat TfR1 (domain or fragment)
Kd [1]: 0.004 µM
Kd [2]: 1 µM
Kd [3]: 1 µM
